Patent publication US20240010680A1 (XIAMEN UNIVERSITY, published 2024)

Biological target: T1, hACE2 purified protein (human (printed as hACE2), UniProt Q9BYF1 18-740)
T1 construct: also called CM5-hACE2 chip
Assay: SPR (Biacore T200), hACE2 amine-coupled to CM5 chip, peptide as analyte
Protocol: Specific Steps: [0031] a. The GE Biacore T200 is started, the Series S Sensor Chip CM5 is embedded into the GE Biacore T200, the PBS is degassed to obtain a degassed PBS, and the degassed PBS is used throughout the experiment; [0032] b. The NHS, the EDC, the ethanolamine, and the hACE2 (1 mg/mL) are placed on a feeding plate of the GE Biacore T200 according to volumes indicated by the GE Biacore T200 using Eppendorf (EP) tubes in sufficient quantities; [0033] c. […] A mobile solution (the degassed PBS) is closed, a command window is closed, and a report is served to obtain a CM5-hACE2 chip;
Specific Steps: [0038] a. Preparing different dilutions as samples for testing: the peptides in Table 1 to be tested at a concentration of 3 mmol/L (mM) are dissolved and sequentially diluted into different dilutions of 100 μmol/L (μM), 60 μM, 30 μM, 10 μM, 3 μM, 1 μM, 0.3 μM, and 0 using the PBS to obtain the samples. Each of the different dilutions is ensured to have a volume of no less than 400 μL and separately packaged on EP tubes. The samples are placed on a test plate of the GE Biacore T200, and the test plate is stuck in a test slot; [0039] b.

T1 sequence (Q9BYF1 18-740 limits assumed): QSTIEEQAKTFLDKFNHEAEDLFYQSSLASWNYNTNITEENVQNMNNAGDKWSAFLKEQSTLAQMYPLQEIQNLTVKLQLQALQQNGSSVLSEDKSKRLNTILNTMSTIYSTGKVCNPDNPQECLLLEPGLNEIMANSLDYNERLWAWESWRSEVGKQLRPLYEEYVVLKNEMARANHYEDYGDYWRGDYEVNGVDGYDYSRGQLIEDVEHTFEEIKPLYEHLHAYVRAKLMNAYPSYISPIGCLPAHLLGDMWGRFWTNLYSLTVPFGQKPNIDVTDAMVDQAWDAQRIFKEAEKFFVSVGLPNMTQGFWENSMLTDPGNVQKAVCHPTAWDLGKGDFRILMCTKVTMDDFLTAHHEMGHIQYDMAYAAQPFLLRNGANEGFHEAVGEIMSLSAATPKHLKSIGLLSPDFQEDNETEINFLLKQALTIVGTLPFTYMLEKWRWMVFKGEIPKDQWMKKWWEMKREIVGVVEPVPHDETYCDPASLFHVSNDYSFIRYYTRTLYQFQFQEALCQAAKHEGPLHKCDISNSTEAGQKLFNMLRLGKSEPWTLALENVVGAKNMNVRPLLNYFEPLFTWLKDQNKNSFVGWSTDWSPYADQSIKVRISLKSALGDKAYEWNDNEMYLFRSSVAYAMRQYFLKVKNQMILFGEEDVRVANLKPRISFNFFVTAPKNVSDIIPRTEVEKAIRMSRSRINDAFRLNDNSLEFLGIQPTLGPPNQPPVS

Binder | Kd
YKYKYL (also called YKYKYL; first peptide) [Peptide12] | 21.4 µM
YRYRYL (also called YRYRYL; second peptide) [Peptide13] | 25.3 µM
YSYIQK (also called YSYIQK; third peptide) [Peptide21] | 36.8 µM
YTYIQK (also called YTYIQK) [Peptide23] | 46.5 µM
